Experimental data as given in PMC7596504, “Molecular mechanism of the MORC4 ATPase activation” (Nature Communications, 2020).
Substitutions are numbered along the chain they refer to. In names and notes the source's numbering stands.

Columns and labels:
HEK293T cells [1] = experiment: Cell cycle analysis by flow cytometry; format: cell-based; details: for effect on S phase (words): 48-h overexpression, vs control cells; for percent of cells in S phase: 48-h overexpression of mCherry-tagged protein, EdU/PI, average of three independent experiments, control 34.5%
Protocol: For DNA content analysis, 10^6 cells previously transfected with mCherry MORC4 constructs and labeled with 25 µM Ethynyl deoxyUridine (EdU) for 1 h in 100 µL were washed with PBS (NaCl 137 mM, KCl 2.7 mM, Na2HPO4 10 mM, KH2PO4 1.8 mM) and fixed in ice cold 70% ethanol overnight. Fixed cells were washed and resuspended in PBS containing 0.05% NP40 and incubated at room temperature for 30 min. Cells were again washed with PBS. Cells were resuspended in Alexa Fluor 647 click staining solution (100 mM Tris pH 7.6, 4 mM CuSO4, 3 µM AF647 azide, 100 mM Sodium Ascorbate) for 1 h. Following staining, cells were washed with PBS and then stained for total DNA content using 10 μg/mL propidium iodide (PI) and 0.2 mg/ml RNase A for 60 min before analysis on a FACScan instrument. Data were analyzed using FlowJo (Version 10) with cells gated to remove doublets. EdU vs PI plots were gated in quadrants to identify G1, early S, late S and G2/M cells. S phase fractions were summed for total S phase population. […]

MORC4 CW domain = biological target: T1, MORC4 CW domain (Homo sapiens, UniProt Q8TE76); experiment: 1H,15N HSQC NMR titration of MORC4 CW; format: binding; details: Supplementary Fig. 12
T1 construct: The CW domain (aa 417–475) of MORC4 was cloned into a pGEX 6p-1 vector; GST (N, cleaved yes); made in house; host or cells: E. coli Rosetta2 (DE3) pLysS or BL21 (DE3) RIL
T1 sequence (Q8TE76 417-475): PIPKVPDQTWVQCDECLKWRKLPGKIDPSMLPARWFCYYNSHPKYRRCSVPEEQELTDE
Protocol: NMR experiments were carried out at 298 K on a Varian INOVA 600 and 900 MHz spectrometers. His-tagged MORC4 ATPase (1–411) was expressed and purified as described above and used without cleavage of the tag. NMR samples contained 0.1 mM uniformly ^15N-labeled WT or mutated CW in 20 mM Tris-HCl (pH 7) buffer supplemented with 100 mM NaCl, 5 mM DTT, and 10% D2O. Binding was characterized by monitoring CSPs in the proteins induced by H3 peptides or the ATPase domain. For the CWKRR mutant, NMR experiments were performed in 20 mM Tris-HCl (pH 6.8) buffer supplemented with 150 mM NaCl, 2 mM DTT, and 10% D2O.

HEK293T cells [2] = experiment: MORC4 localization and nuclear bodies (confocal microscopy); format: cell-based; details: live cells, confocal microscopy, 48 h post transfection
Protocol: WT mCherry-MORC4, mCherry-MORC4 E56A, mCherry-MORC4 W435A, mCherry-MORC4 E56A/W435A, mCherry-MORC4 K460A/R462A/R463A, or mCherry control plasmid were transfected into 2 million 293T-HEK cells seeded on 25 mm circular coverslips (Carolina Biological Supply Item#: 633057) in 10-cm-diameter tissue culture dish by Lipofectamine 3000 (Life Technology, L3000-075) following the manufacturer’s instructions. Two days after transfection, cells were stained with Hoechst […] for 30 min and imaged live on a ZeissAxiovert 200 M inverted microscope fitted with a ×40 oil objective. Images were acquired with Slidebook 6 software and exported for analysis in Image J.
mCherry foci sizes were calculated using ImageJ image processing program (version 1.51) using the Analyze Particle tool. mCherry particle sizes were collected for MORC4 WT and MORC4 W435A transfected cells. Data were plotted with R (version 3.4.1) using ggplot2 (version 3.2.1). Cell size and mCherry foci count per cell were calculated using CellProfile cell image analysis software (version 3.1.5) to identify nuclei and mCherry foci, relate mCherry foci to nuclei containing them and measure the size of nuclei and number mCherry foci contained. Data were plotted with R (version 3.4.1) using ggplot2 (version 3.2.1).

NCP147 = experiment: FRET, LexA titration into Cy3-Cy5 labeled NCP147; format: binding; details: mean of n = 3
Protocol: Histone octamers unlabeled or labeled with Cy5 at H2AK119 were prepared as previously described. NCPs were reconstituted by combining octamer with 1.25× excess DNA and performing slow salt dialysis. Free DNA was then separated from fully reconstituted NCPs by sucrose gradient purification. NCPs for fluorescence polarization assays were reconstituted from unlabeled octamer and 207 bp DNA containing the 601 Widom sequence flanked with a 30 bp linker on either side and internally labeled with Fluorescein 27 bp in from the 5′ end. Cy3-Cy5 labeled NCPs for FRET assays were reconstituted with Cy5 labeled octamer plus either 147 bp 601 Widom DNA containing a LexA transcription factor binding site at bases 8–27[34], or 252 bp DNA containing the 601 Widom sequence with a 75 bp linker at the 3′ end, a 30 bp linker at the 5’ end, and a Gal4 transcription factor binding site at bases 8–26 in the 601 Widom sequence. The 147 bp LexA-binding DNA was labeled with Cy3 on the 5′ end, and the 252 bp Gal4-binding DNA was internally labeled with Cy3 34 bp in from the 5′ end.
LexA was expressed in E. coli, separated from genomic DNA and the proteome by polyethyleneimine precipitation, and salted out with ammonium sulfate. LexA was resuspended in buffer A (20 mM potassium phosphate pH 7, 0.1 mM EDTA, 10% glycerol, 1 mM DTT) + 200 mM NaCl and purified by a linear gradient to A + 800 mM NaCl over either a cellulose phosphate or HiTrap Heparin HP column. […]
Cy3-Cy5 NCP FRET efficiency measurements were carried out on a Horiba Scientific Fluoromax 4. […] LexA titrations were carried out in 20 mM Tris pH 7.5, 75 mM NaCl, 10% glycerol, 0.00625% Tween 20 buffer with 5 nM 147 bp Cy3-Cy5 NCPs mixed in 20 µL reaction volumes and allowed to incubate for 5 mins at 4 °C before FRET of the sample was measured. […] Gal4 (1–147) titrations were carried out in 10 mM Tris pH 8, 130 mM NaCl, 10% glycerol, 0.0075% Tween 20 buffer with 1 nM 252 bp Cy3-Cy5 nucleosomes mixed in 60 µL reaction volumes and allowed to incubate for 10 mins at room temperature before FRET of the sample was measured. […]

B1: MORC4 K460A/R462A/R463A: mCherry-tagged MORC4 triple mutant with disrupted DNA-binding activity of CW (protein, UniProt Q8TE76 1-937, looked up, variant K460A R462A R463A)
MORC family CW-type zinc …: MLLYRGAPAGPGAPGCGLARPGGGPQAFGIRLSTMSPRYLQSNSSSHTRPFSAIAELLDNAVDPDVSARTVFIDVEEVKNKSCLTFTDDGCGMTPHKLHRMLSFGFTDKVIKKSQCPIGVFGNGFKSGSMRLGKDALVFTKNGGTLTVGLLSQTYLECVQAQAVIVPIVPFNQQNKKMIITEDSLPSLEAILNYSIFNRENDLLAQFDAIPGKKGTRVLIWNIRRNKNGKSELDFDTDQYDILVSDFDTEEKMTGGVTSELPETEYSLRAFCGILYMKPRMKIFLRQKKVTTQMIAKSLANVEYDTYKPTFTNKQVRITFGFSCKNSNQFGIMMYHNNRLIKSFEKVGCQVKPTRGEGVGVIGVIECNFLKPAYNKQDFEYTKEYRLTINALAQKLNAYWKEKTSQDNFETSTVARPIPKVPDQTWVQCDECLKWRKLPGKIDPSMLPARWFCYYNSHPAYAACSVPEEQELTDEDLCLSKAKKQEQTVEEKKKMPMENENHQVFSNPPKILTVQEMAGLNNKTIGYEGIHSPSVLPSGGEESRSPSLQLKPLDSSVLQFSSKYKWILGEEPVEKRRRLQNEMTTPSLDYSMPAPYRRVEAPVAYPEGENSHDKSSSERSTPPYLFPEYPEASKNTGQNREVSILYPGAKDQRQGSLLPEELEDQMPRLVAEESNRGSTTINKEEVNKGPFVAVVGVAKGVRDSGAPIQLIPFNREELAERRKAVESWNPVPYSVASAAIPAAAIGEKARGYEESEGHNTPKLKNQRELEELKRTTEKLERVLAERNLFQQKVEELEQERNHWQSEFKKVQHELVIYSTQEAEGLYWSKKHMGYRQAEFQILKAELERTKEEKQELKEKLKETETHLEMLQKAQVSYRTPEGDDLERALAKLTRLRIHVSYLLTSVLPHLELREIGYDSEQVDGILYTVLEANHILD
modifications: mCherry tag
- effect on S phase (words) (HEK293T cells [1]): increased percent of cells in S phase
- effect on S phase (words) (HEK293T cells [1]; listed as K460A/R462A/R463A): no significant effect was observed

B2: MORC4 W435A: mCherry-tagged full-length MORC4 W435A mutant, in which the structure of the CW domain is disrupted (protein, UniProt Q8TE76 1-937, looked up, variant W435A)
chain: B1 MORC family CW-type zinc … with W435A, A460K, A462R, A463R
modifications: full-length mCherry tag
- percent of cells in S phase (HEK293T cells [1]): 36.5%
- structure of the CW domain (MORC4 CW domain): the structure of the CW domain is disrupted
- subcellular localization (HEK293T cells [2]): dispersed throughout the cell

B3: E56A/W435A: dual mutant of mCherry-tagged MORC4 (protein, UniProt Q8TE76 1-937, looked up, variant E56A W435A)
chain: B1 MORC family CW-type zinc … with E56A, W435A, A460K, A462R, A463R
modifications: full-length mCherry tag
notes: dual mutant of mCherry-tagged MORC4
- percent of cells in S phase (HEK293T cells [1]): 35.8%

B4: LexA: transcription factor LexA, expressed in E. coli (protein, UniProt P0A7C2 1-202, looked up)
LexA repressor: MKALTARQQEVFDLIRDHISQTGMPPTRAEIAQRLGFRSPNAAEEHLKALARKGVIEIVSGASRGIRLLQEEEEGLPLVGRVAAGEPLLAQQHIEGHYQVDPSLFKPNADFLLRVSGMSMKDIGIMDGDLLAVHKTQDVRNGQVVVARIDDEVTVKRLKKQGNKVELLPENSEFKPIVVDLRQQSFTIEGLAVGVIRNGDWL
- S1/2 (NCP147; +1 μM MORC4 ATPaseCW): 2.4 ± 0.4 µM
- S1/2 (NCP147; without MORC4, 5 nM NCP147, pH 7.5, 75 mM NaCl, 4 °C, 5 min): 0.9 ± 0.2 µM
